Non-standard residues stand in square brackets, D forms with d. No end group written: not given here. Ahx = NCCCCCC(=O)O
Legend:
[1] = target: T1, His-tagged recombinant full-length ApoE4, 10xHIS-ApoE4(1-299) (human, UniProt P02649 19-317); assay: direct ELISA, target coated at 1 ug/ml, antibody in 3-fold dilutions from 500 ng/ml, OD 450 nm
T1 construct: also called ApoE4-FL-HIS
Experimental: (§1) Selectivity evaluation of recombinant antibodies by direct ELISA: The direct ELISA described below was used to evaluate the binding selectivity of the recombinant antibodies produced in Example 11.
(§2) The screening was performed according to standard ELISA protocols. Briefly, 1 μg/ml solutions of BSA-conjugated neo-epitope peptides, recombinant C-terminal ApoE fragment, negative control peptide and full-length ApoE were prepared by dilution in PBS. 50 μl/well were added to an ELISA half-area 96 well microtiter plate, the plate was sealed with adhesive sealer and incubated over night at 4° C. After discarding the solution, the plates were blocked with 150 μl/well of protein-free blocking solution (Pierce) for 1 h at room temperature with shake (900 rpm). The plates were washed four times with washing buffer containing 0.28 mM NaH₂PO₄, 2.5 mM Na₂HPO₄, 150 mM NaCl, 0.1% TWEEN®-20 and 0.0075% Kathon CG. Generated recombinant antibodies of interest were serially diluted 3-fold with a starting dilution at 0.5 μg/ml (mixed 1:1 with dilution buffer: PBS with 0.1% BSA and 0.05% TWEEN®-20). An anti-ApoE C-terminal antibody was used as a reference antibody (ApoE E-8 mouse monoclonal, cat. no. sc-393302; Santa Cruz Biotechnology). 50 μl/well were added into the ELISA plates and incubated for 2 h at room temperature with shake (900 rpm). The plates were washed four times as described previously. […] After another wash (as described previously), 50 μl/well of K-Blue® aqueous substrate (Neogen) were added, and the reaction was stopped after 5-15 min with 50 μl/well of 0.5 M […]. The optical density at 450 nm was read using an ELISA reader (Tecan).

[2] = target: T2, A199 N-terminal neo-epitope peptide AGQPLQ-Acp-C (SEQ ID NO:51) conjugated to BSA (human, not fully specified (residue 8); printed as AGQPLQ-Acp-C; also: C-terminal Cys conjugated to BSA carrier); assay: as above
T2 construct: BSA carrier; also called A199-BSA peptide
T2 peptide: AGQPLQ[Ahx]C
Experimental: as §1, §2

[3] = target: T2, A199 N-terminal neo-epitope peptide …; assay: direct ELISA, second protocol; proteins coated at 0.1 uM, BSA peptides at 1 ug/ml; antibody in 3-fold dilutions from 3000 ng/ml; blank reduced OD 450 nm
Experimental: as §2, with “Generated recombinant antibodies of interest were serially diluted 3-fold with a starting dilution at 0.5 μg/ml (mixed 1:1 with dilution buffer: PBS with 0.1% BSA and 0.05% TWEEN®-20).” left out, “(Tecan). The optical density was plotted against the antibody concentration to generate concentration-response curves (FIG. 16).” for “(Tecan).”
These were added in the same molarity (0.1 μM) to provide an equal number of molecules available for binding by the antibodies (BSA-coupled peptides were coated at 1 μg/ml as before).

T1 sequence (P02649 other isoform, or with tags, fused parts or gaps limits assumed): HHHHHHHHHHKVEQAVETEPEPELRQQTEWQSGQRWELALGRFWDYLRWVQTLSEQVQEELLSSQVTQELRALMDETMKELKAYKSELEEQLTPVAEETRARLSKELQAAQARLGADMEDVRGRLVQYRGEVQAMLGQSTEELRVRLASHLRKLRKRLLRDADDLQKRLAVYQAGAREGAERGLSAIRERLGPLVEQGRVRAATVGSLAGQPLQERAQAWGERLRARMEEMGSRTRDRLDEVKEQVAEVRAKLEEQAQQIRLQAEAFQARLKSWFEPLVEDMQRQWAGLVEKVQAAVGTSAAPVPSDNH

Binder	binding result [1]	binding result [2]	EC50 (read off the curve) [3] [µg/mL]
23D5, recombinant IgG2c antibody (antibody, V domains shown) VH: EVQLVESGGGLVKPGGSLKLSCSASGFTFSRYAMSWVRQSPEKRLEWVAEINSGGSYSFYSDTVTGRFTISRDNAKNTLFLEMSSLRSEDTAIYYCARQLSGTDYYGTDYWGQGTSVTVSS VL: DVLMTQTPLSLPVSHGDQASISCRSSQSLLYSNGNTYLEWYLQKPGQSPKLLIYKVSNRFSGVPDRFSGSGSGTDFTLKISRVEAEDLGVYYCFQGSHVPYTFGGGTKLEIK	no binding (tested: 500 ng/ml)	no binding (tested: 500 ng/ml)	
7C7, recombinant IgG2c antibody (antibody, V domains shown) VH: EVQLVESGGGLVKPGGSLRLSCAASGFTFSSFAMSWVRQSPERRLEWVAEISRGGGYAFYSDTVTGRFTISRDNARNTLFLEMGSLRSEDTAMYYCSRQLTGTDYYAMDYWGQGTSVTVSS VL: DVLLTQTPLSLFVSLGDQASISCRSSQSIVYTNGNTYLEWYLQKPGQSPKLLIYKVSNRFSGVPDRFSGSGSGTDFTLKISRVEAEDLGVYYCFQGSQVPYTFGGGTKLELK		no binding (tested: 500 ng/ml)	
4E6, recombinant IgG2c antibody (antibody, V domains shown, also called recombinant anti-G200 antibody 4E6) VH: EVQLVESGGDLVKPGGSLKLSCAASGFTFSSYAMSWVRQSPEKRLEWVAEISGSGSRDHYTDSVTGRFTVSRDNAKNTLYLEMSSLRSEDTAIYYCARQLTGTDYYGTDYWGQGTSVTVSS VL: DVLMTQIPLSLPVSLGDQASISCRSSQSIVYSNGNTYLEWYLQRPGQSPKLLIYKVSNRFSGVPDRFSGSGSGTDFTLKISRVEAEDLGVYYCFQGSHLPYTFGGGTKLEIK	no binding (tested: 500 ng/ml)	no binding (tested: 500 ng/ml)	
7B10, recombinant IgG2c antibody (antibody, V domains shown, also called 7610) VH: AVQLVESGGGLVKPGRSLKLSCAASGFTFSSYAMSWVRQFPDKRLDWVAEISSGGGSTNYLDTVTGRFTISRDNAKNTLYLEMNSLRSEDTAMYYCARQLVGTDYYGTDYWGQGTSVTVSS VL: DVLMTQTPLSLPVSLGDQASISCRSSQNIVYSNGNTYLEWYLQKPGQSPKLLIYKVSNRFSGVPDRFSGSGSGTDFTLKISRVEAEDLGVYYCFQGSHVPYTFGGGTKLEIK	no binding (tested: 500 ng/ml)	no binding (tested: 500 ng/ml)	
17G4, recombinant IgG2c antibody (antibody, V domains shown) VH: EVQLVESGGGLVKPGGSLKLSCSASGFTFSRYAMSWVRQSPEKRLEWVAEINSGGSYSFYSDTVTGRFTISRDNAKNTLFLEMSSLRSEDTAIYYCARQLTGTDYYGTDYWGQGTSVTVSS VL: DVLMTQTPLSLPVSHGDQASISCRSSQSLLYSNGNTYLEWYLQKPGQSPKLLIYKVSNRFSGVPDRFSGSGSGTDFTLKISRVEAEDLGVYYCFQGSHVPYTFGGGTKLEIK	no binding (tested: 500 ng/ml)	no binding (tested: 500 ng/ml)	
28F2, recombinant IgG2c antibody (antibody, V domains shown) VH: QIQLVQSGPDLKKPGETVKISCKASGYTFTNYAMHWMKQAPGKALKWMGWINTYTGEPTFADDFKGRFAFSLETSASTAYLQINSLKNEDMATYFCAREGYYDRSHYFDYWGQGTTLTVSS VL: DVLMTQTPLSLPVSLGDQASISCRSSLSLVHGDGNTYLEWYLQKPGQSPKLLIYKVSNRFSGVPDRFSGSGSGTDFTLKISRVEAEDLGVYYCLQGSHIPFTFGSGTKLEIK	no binding (tested: 500 ng/ml)		~0.1
